Experimental data as given in patent US20260167721A1 (ABLEXIS, published 2026).
Positions count from the first letter of the chain named.

B1: ABL-CD3-3 (antibody, V domains shown)
VH: EVQLVESGGGLVKPGGSLRLSCAASGFTFSSYSMNWVRQAPGKGLEWVSYISRSSNYIHYADSVKGRFTIFRDNAKNSLYLQMNSLRVEDTAVYYCARAERGSYAVDIWGQGTMVTVSS
VL: not shown
notes: Chimeric hybridoma mAb: human V, CH1, upper hinge; mouse middle hinge, CH2, CH3
B2: ABL-CD3-4 (antibody, V domains shown)
VH: VQLVESGGGLVKPGGSLRLSCAASGFTFSSYNMNWVRQAPGKGLEWVSSISSSSSYIYYADSVKGRFTISRDNAKNSLYLQMNSLRAEDTAVFYCARAERGSYAFDIWGQGTMVTVSS
VL: not shown
notes: as for B1
B3: ABL-CD3-5 (antibody, V domains shown)
VH: EVQLVESGGGLVQPGGSLRLSCAASGFTFSRYSMNWVRQAPGKGLEWVSYISSSSSSIYYADSVKGRFTISRDNAKNSLYLQMNSLRDEDTAVYYCARDRRATLDYWGQGTLVTVSS
VL: NFMLTQPHSVSESPGKTVTISCTRSSGSIASNYVQWYQQRPGSSPTTVIYEDNQRPSGVPDRFSGSIDSSSNSASLTISGLKTEDEADYYCQSYDSSNHVFGGGTKLTVL
notes: as for B1
B4: ABL-CD3-48 (antibody, V domains shown)
VH: EVQLVESGGGLVKPGGSLRLSCAASGFTFSSYTMNWVRQAPGKGLEWVSSISGSGSYIYYADSVKGRFTISRDNAKNSLYLQMNSLRAEDTAVYYCAREPPTLGMDYWGQGTLVTVSS
VL: B3 VL with Y94F, H99R
notes: as for B1
B5: ABL-CD3-7 (antibody, V domains shown)
VH: B4 VH with S31R, T33S, E46K, G53S, I58K
VL: B3 VL with Y94F, S96N, H99R
notes: as for B1
B6: ABL-CD3-12 (antibody, V domains shown)
VH: B4 VH with G53R, G55S, I58K, T115I
VL: B3 VL with S26N, A30T, Y94F, S96N, H99R, G103E, G104K
notes: as for B1
B7: ABL-CD3-24 (antibody, V domains shown)
VH: B4 VH with A23V, G53R, I58K, Y60N, A88V
VL: B3 VL with Y94F, D95Y, H99R, K106E
notes: as for B1
B8: ABL-CD3-26 (antibody, V domains shown)
VH: B4 VH with Q3H, T33S, G53S, G55S, S56T, P101R, T112I
VL: B3 VL with Q54H, Y90F, Y94F, H99R
notes: as for B1
B9: ABL-CD3-28 (antibody, V domains shown)
VH: QVQLQQSGPGLVKPSQTLSLTCAISGDSVSSNSVAWNWIRQSPSRGLEWLGRTYYRSKWYNECAGSVKSRITINPDTSKNQFSLQLNSVTPEDTAIYYCARERKWELFLDYWGQGTLVTVSS
VL: B3 VL with Y94F, H99V
notes: as for B1
B10: ABL-CD3-10 (antibody, V domains shown)
VH: B9 VH with S31C, Y60H, C63Y, G65V, T72N, N74K, F82V, N87K, I96V
VL: B3 VL with V48M, Y94L, N98S, H99V
notes: as for B1
B11: ABL-CD3-50 (antibody, V domains shown)
VH: B9 VH with Y55S, E62D, C63Y, G65V, Q85E, I96V
VL: B3 VL with S43I, Y94F, S96T, H99V
notes: as for B1
B12: ABL-CD3-47 (antibody, V domains shown)
VH: EVQLVESGGGLVQPGGSLRLSCAASGFTFSRYSMNWVRQAPGKGLEWVSYISRSSTTIYYADSVKGRFTISRDNAKNSLYLQMNSLRDEDAAVYYCARERWELLYFDYWGQGTLVTVSS
VL: B3 VL with N32K, D95Y, S97N, H99R
notes: as for B1
B13: ABL-CD3-20 (antibody, V domains shown)
VH: EVQLVESGGGLVKPGGSLRLSCAASGLTFSTYSMNWVRQAPGKGLEWVSSISSSGSYVYYADSVKGRFTMSRDNAKNSLYLQMNSLRAEDTAVYYCARERRELLFDYWGQGTLVTVSS
VL: B3 VL with T47S, S96R, H99R
notes: as for B1
B14: ABL-CD3-53 (antibody, V domains shown)
VH: EVQLVESGGGLVKPGGSLRLSCAASGFTFSSYTMNWVRQAPGKGLEWVSSITTSSSYIYYADSVKGRFTISRDNAKNSLYLQMNSLRAEDTAVYYCARVTFDAFDIWGQGTMVTVSS
VL: B3 VL with H99R
notes: as for B1
B15: ABL-CD3-79 (antibody, V domains shown)
VH: B12 VH with Q13K, F29V, R31N, Y50C, T56S, T57Y, Y80F, D88A, A91T
VL: QTVVTQEPSFSVSPGGTVTLTCGLSSGSVSTSYYPSWYQQTPGQAPRTLIYSTNTRSSGVPDRFSGSILGNKAALTITGAQADDESDYYCVLYMGSGIWVFGGGTKLTVL
notes: mAb purified from hybridoma; chimeric AlivaMab IgG (human VH, CH1 and upper hinge; mouse middle hinge, CH2, CH3; human light chain)
B16: ABL-CD3-81 (antibody, V domains shown)
VH: QVQLQESGPGLVKPSQTLSLTCTVSGGSISSGGYYWSWIRQHPGKGLEWIGYIYYSGSTYYNPSLKSRVTISVDTSKDQFSLKLSSVTAADTAVYYCARERKTSLPFDIWGQGTMVTVSS
VL: B3 VL with D88Y, Y94F, H99R
notes: as for B15
B17: ABL-CD3-83 (antibody, V domains shown)
VH: EVQLVESGGGLVKPGGSLRLSCAASGFTFSSYSMNWVRQAPGKGLEWVSTISRSGGYIYDADSVKGRFTISRDNAKNSLYLQMNSLRAEDTAVYYCARDFNWTFDNWGQGTLVTVSS
VL: B3 VL with Y94S, S96R, H99V
notes: as for B15
B18: ABL-CD3-85 (antibody, V domains shown)
VH: B17 VH with T50S, S54R, G55S, D60Y, I70L, N77K, F100L, T103A, N106Y
VL: B3 VL with Q54H, S79A, Y94C, H99V
notes: as for B15
B19: ABL-CD3-86 (antibody, V domains shown)
VH: EVQLVESGGGLVKPGGSLRLSCAASGFTFSRYSMNWVRQAPGKGLEWVSTISRSSRYIYYGDSVKGRFTISRDNAKNSLLLQMNSLRAEDTAVYYCARDHNWSFDYWGKGILVTVSS
VL: B3 VL with H8L, V18L, S25N, Q38R, N53K, T83A, Y94C, H99V, K106T
notes: as for B15

These binders were tested against T1, recombinant human CD3 epsilon/delta heterodimer (human, UniProt P07766 23-126; P04234 22-105) (assay: Octet BLI, mAb on FAB2G sensor, hCD3 E/D 200-50 nM; R^2 0.99).
T1 construct: Recombinant protein in solution (200-50 nM) in the Octet assay; also called hCD3 E/D; human CD3E/D
T1 sequence (P07766 23-126, stated change not applied, chain 1 of 2): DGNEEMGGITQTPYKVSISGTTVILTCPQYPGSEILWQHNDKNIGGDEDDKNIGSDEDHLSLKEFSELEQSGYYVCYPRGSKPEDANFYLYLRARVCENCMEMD
T1 sequence (P04234 22-105, stated change not applied, chain 2 of 2): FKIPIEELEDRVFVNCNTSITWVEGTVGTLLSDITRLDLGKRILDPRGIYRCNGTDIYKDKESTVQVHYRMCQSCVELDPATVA

| Binder | Kd | Response | koff | kon |
| --- | --- | --- | --- | --- |
| B1 | 10.4 nM | 1.03 | 0.0012 s⁻¹ | 116000 M⁻¹ s⁻¹ |
| B2 | 94.5 nM | 0.32 | 0.0302 s⁻¹ | 320000 M⁻¹ s⁻¹ |
| B3 | 88.1 nM | 0.36 | 0.0321 s⁻¹ | 365000 M⁻¹ s⁻¹ |
| B4 | 11.5 nM | 1.17 | 0.00114 s⁻¹ | 99300 M⁻¹ s⁻¹ |
| B5 | 4.14 nM | 0.86 | 0.000786 s⁻¹ | 190000 M⁻¹ s⁻¹ |
| B6 | 10.6 nM | 1.21 | 0.00144 s⁻¹ | 136000 M⁻¹ s⁻¹ |
| B7 | 5.78 nM | 0.93 | 0.00101 s⁻¹ | 175000 M⁻¹ s⁻¹ |
| B8 | 6.66 nM | 1.03 | 0.00104 s⁻¹ | 156000 M⁻¹ s⁻¹ |
| B9 | 7.88 nM | 0.77 | 0.00133 s⁻¹ | 168000 M⁻¹ s⁻¹ |
| B10 | 2.47 nM | 0.52 | 0.00046 s⁻¹ | 186000 M⁻¹ s⁻¹ |
| B11 | 21 nM | 0.57 | 0.0047 s⁻¹ | 224000 M⁻¹ s⁻¹ |
| B12 | 16.9 nM | 0.62 | 0.00291 s⁻¹ | 172000 M⁻¹ s⁻¹ |
| B13 | 10.5 nM | 0.51 | 0.00229 s⁻¹ | 219000 M⁻¹ s⁻¹ |
| B14 | 146 nM | 0.24 | 0.0199 s⁻¹ | 136000 M⁻¹ s⁻¹ |

Each binder was assayed against T2, recombinant human CD3 epsilon/gamma heterodimer (human, UniProt P07766 23-126; P09693 23-116) (assay: Octet BLI, mAb on FAB2G sensor, hCD3 E/G 200-50 nM; R^2 0.99).
T2 construct: Recombinant protein in solution (200-50 nM) in the Octet assay; also called hCD3 E/G
T2 sequence (P07766 23-126, chain 1 of 2): as the sequence (P07766 23-126, stated change not applied, chain 1 of 2) above
T2 sequence (P09693 23-116, chain 2 of 2): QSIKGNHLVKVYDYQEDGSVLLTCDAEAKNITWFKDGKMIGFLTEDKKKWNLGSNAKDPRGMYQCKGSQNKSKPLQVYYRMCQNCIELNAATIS

| Binder | Kd | Response | koff | kon |
| --- | --- | --- | --- | --- |
| B1 | 12.4 nM | 0.96 | 0.00143 s⁻¹ | 115000 M⁻¹ s⁻¹ |
| B2 | 91.9 nM | 0.36 | 0.0221 s⁻¹ | 241000 M⁻¹ s⁻¹ |
| B3 | 106 nM | 0.27 | 0.0449 s⁻¹ | 423000 M⁻¹ s⁻¹ |
| B4 | 17.9 nM | 1.03 | 0.00179 s⁻¹ | 100000 M⁻¹ s⁻¹ |
| B5 | 8.42 nM | 0.81 | 0.00142 s⁻¹ | 169000 M⁻¹ s⁻¹ |
| B6 | 10.5 nM | 1.14 | 0.00124 s⁻¹ | 118000 M⁻¹ s⁻¹ |
| B7 | 8.48 nM | 0.89 | 0.00134 s⁻¹ | 158000 M⁻¹ s⁻¹ |
| B8 | 9.31 nM | 1.01 | 0.00123 s⁻¹ | 132000 M⁻¹ s⁻¹ |
| B9 | 5.6 nM | 0.77 | 0.000798 s⁻¹ | 143000 M⁻¹ s⁻¹ |
| B10 | 2.41 nM | 0.46 | 0.00039 s⁻¹ | 162000 M⁻¹ s⁻¹ |
| B11 | 12.6 nM | 0.6 | 0.00247 s⁻¹ | 196000 M⁻¹ s⁻¹ |
| B12 | 36.2 nM | 0.43 | 0.00785 s⁻¹ | 217000 M⁻¹ s⁻¹ |
| B13 | 18.3 nM | 0.45 | 0.00379 s⁻¹ | 207000 M⁻¹ s⁻¹ |
| B14 | 88.7 nM | 0.4 | 0.00714 s⁻¹ | 80500 M⁻¹ s⁻¹ |

The binders below were run against T3, recombinant human CD3 epsilon/gamma heterodimer (human, UniProt P07766 23-126; P09693 23-116) (assay: BLI (Octet), mAb 5 ug/mL on FAB2G sensor, hCD3 E/G 200-50 nM;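 further: antibodies purified from hybridoma supernatants, measured by Octet binding to recombinant human CD3 protein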).
T3 construct: Recombinant heterodimer used as analyte in Octet; also called hCD3 E/G
T3 sequence (P07766 23-126, chain 1 of 2): as the sequence (P07766 23-126, stated change not applied, chain 1 of 2) above
T3 sequence (P09693 23-116, chain 2 of 2): as the sequence (P09693 23-116, chain 2 of 2) above
Protocol: (§1) Samples were evaluated by flow cytometry analysis against Jurkat and human Pan-T cells (FIG. 1B) as well as by Octet against recombinant human CD3 proteins to evaluate apparent affinities and binding off-rates (Table 6, infra).

| Binder | Kd | Response | koff | kon |
| --- | --- | --- | --- | --- |
| B15 | 412 nM | 0.07 | 0.162 s⁻¹ | 393000 M⁻¹ s⁻¹ |
| B16 | 912 nM | 0.04 | 0.692 s⁻¹ | 759000 M⁻¹ s⁻¹ |
| B17 | 37.6 nM | 0.01 | 0.00649 s⁻¹ | 173000 M⁻¹ s⁻¹ |
| B18 | 29.8 nM | 0.64 | 0.00608 s⁻¹ | 204000 M⁻¹ s⁻¹ |
| B19 | 3.52 nM | 1.17 | 0.000558 s⁻¹ | 158000 M⁻¹ s⁻¹ |

What follows are binders tested against T4, recombinant human CD3 epsilon/delta heterodimer (human, UniProt P07766 23-126; P04234 22-105) (assay: BLI (Octet), mAb 5 ug/mL on FAB2G sensor, hCD3 E/D 200-50 nM).
T4 construct: Recombinant heterodimer used as analyte in Octet; also called hCD3 E/D; human CD3E/D
T4 sequence (P07766 23-126, stated change not applied, chain 1 of 2): as the sequence (P07766 23-126, stated change not applied, chain 1 of 2) above
T4 sequence (P04234 22-105, stated change not applied, chain 2 of 2): as the sequence (P04234 22-105, stated change not applied, chain 2 of 2) above
Protocol: as §1

| Binder | Kd | Response | koff | kon |
| --- | --- | --- | --- | --- |
| B15 | 120 nM | 0.22 | 0.0473 s⁻¹ | 393000 M⁻¹ s⁻¹ |
| B16 | 283 nM | 0.17 | 0.107 s⁻¹ | 378000 M⁻¹ s⁻¹ |
| B17 | 22 nM | 0.03 | 0.00882 s⁻¹ | 401000 M⁻¹ s⁻¹ |
| B18 | 27.9 nM | 0.042 | 0.00689 s⁻¹ | 247000 M⁻¹ s⁻¹ |
| B19 | 3.88 nM | 1.1 | 0.000711 s⁻¹ | 184000 M⁻¹ s⁻¹ |
